assay: soluble on expression in E. coli; label from the status in PepcDB or PDB records

Sequence | soluble on expression in E. coli
MQVHSGETEILRKAVEDYFCFCYGKALGTTVMVPVPYEKMLRDQSAVVVQGLPEGVAFQHPENYDLATLKWILENKAGISFIINRPFLGPESQLGGPGMVTDAERSIVSPSESCGPINVKTEPMEDSGISLKAEAVSVKKESEDPNYYQYNMQGSHPSSTSNEVIEMELPMEDSTPLVPSEEPNEDPEAEVKIEGNTNSSSVTNSAAGVEDLNIVQVTVPDNEKERLSSIEKIKQLREQVNDLFSRKFGEAIGVDFPVKVPYRKITFNPGCVVIDGMPPGVVFKALGYLEISSMRRILEAAEFIKFTVIRPLPGLELSNVGKRKIDQEGRVFQEKWERAYFFVEVQNIPTCLICKQSMSVSKEYNLRRHYQTNHSKHYDQYTERMRDEKLHELKKGLRKYLLGSSDTECPEQKQVFANPSPTQKSPVQPVEDLAGNLWEKLREKIRSFVAYSIAIDEITDINNTTQLAIFIRGVDENFDVSEELLDTVPMTGTKSGNEIFLRVEKSLKKFCINWSRLVSVASTGTPAMVDANNGLVTKLKSRVATFCKGAELKSICCIIHPESLCAQKLKMDHVMDVVVKSVNWICSRGLNHSEFTTLLYELDSQYGSLLYYTEIKWLSRGLVLKRFFESLEEIDSFMSSRGKPLPQLSSIDWIRDLAFLVDMTMHLNALNISLQGHSQIVTQMYDLIRAFLAKLCLWETHLTRNNLAHFPTLKLVSRNESDGLNYIPKIAELKTEFQKRLSDFKLYESELTLFSSPFSTKIDSVHEELQMEVIDLQCNTVLKTKYDKVGIPEFYKYLWGSYPKYKHHCAKILSMFGSTYICEQLFSIMKLSKTKYCSQLKDSQWDSVLHIAT | soluble
MAASITAITVENLEYPAVVTSPVTGKSYFLGGAGERGLTIEGNFIKFTAIGVYLEDIAVASLAAKWKGKSSEELLETLDFYRDIISGPFEKLIRGSKIRELSGPEYSRKVMENCVAHLKSVGTYGDAEAEAMQKFAEAFKPVNFPPGASVFYRQSPDGILGLSFSPDTSIPEKEAALIENKAVSSAVLETMIGEHAVSPDLKRCLAARLPALLNEGAFKIGN | soluble
MGSDKIHHHHHHMKLTAQIHIEKMAYELRDHAHAVIKNVLLMSNISTLSLQLAMRELAQHSRVALHFHPDQIDNRGLTVVDGLLRDGVYKSQFETHVSNGHLSPELGGSRDHWENQLFGHSYSGIKHRPKYGALDFGLCPLGPAPRFGSCYLVTHPQILSRCTFSYMDSHRLPKEKGTIKCFDAILAALLSESFERQYALGVSGLKPSKLIEHFSQHLTDDISRRFDLVPSGNLDHYIEAQIHGDVSLDQDIAILVADPSYMGTAIGDSLIALCHEYGIELHWHQGRQINVAQIPDDFRGAAMPILAQSLAENELINAEIIGRAAYQLQKQPASWSERGAHSKKRQDLKLLWHVLVKYGESTGQ | not soluble
MSLEQSDRDRPLADRMRPRTLDEFAGQEHILAPGKPLRVQIDRDDIGSLIFWGPPGVGKTTLAKIIAAMTHADFIEFSAVLSGIKEIKQVMADAERVRQYGTRTILFVDEIHRFNRAQQDAFLPHVERGNIKLIGATTENPSFEVNSALLSRSRVYTLTPLTEEQIVGLLRRALTDTERGLAELHVTAEDIALARIAAYASGDARSGYNVLEVAAQAAGATSERIITEQIVADALQRRVLRYDKSGEEHYNLISALHKSVRNSDPDAALYWLARMIESGEDALYIARRVVRMAVEDIGLADPNALALTLAAKDAIDFLGMPEANLALAQAVVYLSIAPKSNALYTAYGDVQADVEKTAADPVPLHLRNAPTKLMKEIGYGSGYQYAHDLEAKVADMQCLPDNLKDRVYYHPTDQGIEQRIRTRLEEIRREGHHHHHH | soluble
MSLLDFEKPLFEIRNKIESLKESQDKNDVDLQEEIDMLEASLERETKKIYTNLKPWDRVQIARLQERPTTLDYIPYIFDSFMELHGDRNFRDDPAMIGGIGFLNGRAVTVIGQQRGKDTKDNIYRNFGMAHPEGYRKALRLMKQAEKFNRPIFTFIDTKGAYPGKAAEERGQSESIATNLIEMASLKVPVIAIVIGEGGSGGALGIGIANKVLMLENSTYSVISPEGAAALLWKDSNLAKIAAETMKITAHDIKQLGIIDDVISEPLGGAHKDVEQQALAIKSAFVAQLDSLESLSRDEIANDRFEKFRNIGSYIEEGHHHHHH | not soluble
MSNYEKVYIGTYTNGESRGIYSFNIISDSRKTTAPILSCEIENPTYLTFNMNNKTAYSVIKSGNLGGAASFYVDDRNNHLELLNCKFGYENPPERFSGKQPCYVSLDKTNSYLFSVNYHTSRVDVFPIRNDGSIDTVSSFVIHEGFGPNKERQETSHVHCAVTTPLNDFLCVVDLGTDKIVLYRFDDGILCRFNEFKLKPGCGPRHIIFHPNGKIAYIATELSSEVIVLKYSPLDGSFEELQYVSCLPTDYTGKNGSAAIHISRNSNYLYVSNRGHNSISCFHVDNSTGLLTLNSNTSTYGLSPRDFDLSSSGNLLIAANQDSSNLTIFSVDQVSGNLSKITSDIYVPNPVCVKFYHDKLEHHHHHH | not soluble

Source: the DeepSol protein solubility set
